According to patent publication US5977442A, “Salicylic acid induced map kinase and its use for enhanced disease resistance in plants” (priority 1997, dated 1999):

Assays:
MBP [1] = experiment: Kinase activity assay during purification of p48 SIP kinase (MBP substrate); format: biochemical
Protocol: All purification procedures were carried out in a cold room or in a 4° C. chamber. Protein extract from about 200 grams of SA-treated cells was first fractionated by (NH4)2 SO4 precipitation. Saturated ammonium sulfate solution was slowly added to total protein extract to 30% of final concentration. After slowly stirring for 30 minutes, the precipitate was collected by centrifugation at 23,000×gfor 10 minutes. The pellets were then dissolved in a total of 30 mL of buffer A (25 mM Tris, pH 7.5, 1 mM EGTA, 10 mM β-glycerolphosphate, 0.1 mM Na3 VO4, 1 mM DTT, 5% glycerol) plus 1 mM phenylmethylsulfonyl fluoride, 5 μg/mL each of antipain, aprotinin, and leupeptin. […]
Unless specifically indicated, assays were performed at room temperature for 20 minutes in a final volume of 15 μl containing 0.5 mg/mL of MBP, 50 μM of γ-^32 P-ATP (about 3000-6000 cpm/pmole), 25 mM Tris pH 7.5, 5 mM MgCl2, 1 mM EGTA, 1 mM DTT, and enzyme. […] After washing with 150 mM H3 PO4 extensively, the phospho-protein was eluted with 0.4 mL of 1 N NaOH, and the radioactivity was determined by liquid scintillation counting. Total cpm in the reaction mixture was also determined in order to calculate the specific activity of the enzyme preparation. […]

p48 SIP kinase = biological target: T1, p48 SIP kinase (Nicotiana tabacum, UniProt A0A1S3Z5Y0); experiment: Kinetic properties, substrates, cofactors and pH dependence of p48 SIP kinase (in-solution kinase assay); format: biochemical, tobacco; conditions: pH of 5.5 or 10
T1 construct: endogenous in cells; host or cells: SA-treated tobacco suspension culture cells (purified through the poly-L-lysine agarose step)
T1 sequence (A0A1S3Z5Y0 whole entry): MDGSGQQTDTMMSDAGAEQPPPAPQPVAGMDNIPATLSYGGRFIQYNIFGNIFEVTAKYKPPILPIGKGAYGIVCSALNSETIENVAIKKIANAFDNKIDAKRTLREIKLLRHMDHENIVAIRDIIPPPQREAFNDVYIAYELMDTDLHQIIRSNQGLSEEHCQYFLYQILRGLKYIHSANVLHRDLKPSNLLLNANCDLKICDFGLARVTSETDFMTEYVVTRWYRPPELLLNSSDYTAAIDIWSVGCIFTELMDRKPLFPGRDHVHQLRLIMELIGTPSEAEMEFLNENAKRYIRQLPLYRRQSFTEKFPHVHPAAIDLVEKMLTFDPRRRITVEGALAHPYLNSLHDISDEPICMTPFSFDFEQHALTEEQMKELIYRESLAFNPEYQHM
Protocol: FIGS. 10A and 10B show a pair of graphs illustrating the effect of pH (FIG. 10A), Mg^2+ and Mn^2+ (FIG. 10B) on p48 SIP kinase activity. Approximately 0.5 unit of partially purified enzyme was used in each test. Buffers used for measuring the effect of pH were 50 mM 2-[N-morpholino]ethanesulfonic acid (Mes, pH 5.0-8.0, .circle-solid.), 50 mM Tris (pH 6.0-9.5, .tangle-solidup.), and 50 mM 3-[cyclohexylamino]-1-propanesulfonic acid (Caps, pH 9.0-12.0, .box-solid.). For testing the effects of Mg^2+ (.circle-solid.), and Mn^2+ (.tangle-solidup.), buffer B from the last purification step was first exchanged to Mg^2+ -free buffer using a desalting column. Mg^2+ was not added in reactions for testing the effect of Mn^2+.
FIG. 11 is a graph depicting the protein substrate preference of the p48 SIP kinase. About 0.5 unit of partially purified enzyme was used in each reaction. The assay conditions were as described below in Example 1, except various concentrations of MBP (.circle-solid.), histone (.tangle-solidup.), and casein (.box-solid.) were used.
Unless specifically indicated, assays were performed at room temperature for 20 minutes in a final volume of 15 μl containing 0.5 mg/mL of MBP, 50 μM of γ-^32 P-ATP (about 3000-6000 cpm/pmole), 25 mM Tris pH 7.5, 5 mM MgCl2, 1 mM EGTA, 1 mM DTT, and enzyme. The reaction was terminated by the addition of equal volume of 150 mM H3 PO4. Twenty μL of the mixture was spotted onto an 8-well phosphocellulose filter strip (Pierce, Ill.). After washing with 150 mM H3 PO4 extensively, the phospho-protein was eluted with 0.4 mL of 1 N NaOH, and the radioactivity was determined by liquid scintillation counting. Total cpm in the reaction mixture was also determined in order to calculate the specific activity of the enzyme preparation. One unit of p48 SIP kinase was defined as the amount of enzyme that will catalyze the transfer of 1 pmole of phosphate from ATP to MBP in 1 minute.

MBP [2] = experiment: Basal phosphorylation activity of recombinant SIP kinase produced in E. coli; format: biochemical; conditions: recombinant protein from E. coli
Source text: A tobacco clone that encodes an exemplary SIP kinase of the invention is described in detail herein. The nucleotide sequence of a cDNA encoding tobacco SIP kinase is set forth below as Sequence I.D. No. 1. It is believed that Sequence I.D. No. 1 constitutes a full-length SIP kinase-encoding clone as it contains a suitable methionine for initiation of translation.
Optionally, transgenic plants would be created containing mutations in the region encoding the active site of SIP kinase. This embodiment is preferred over the use of anti-sense constructs due to the very high homology between MAP kinases. For example, a mutated p48 SIP kinase with a Lys to Arg change in the kinase subdomain II has been made, and could be introduced into wild tobacco plants. […] Since the mutant p48 kinase would still serve as the substrate for upstream MAP kinase kinase and physically compete with the wild-type p48 SIP kinase, but would not transduce signal to downstream components, it may be possible to specifically block the pathway without affecting other MAP kinase cascades.

B1: p48 SIP kinase: novel protein kinase isolated from tobacco, activated by salicylic acid; Sequence I.D. No. 2 (protein)
chain: MDGSGQQTDTMMSDAGAEQPPTAPQPVAGMDNIPATLSHGGRFIQYNIFGNIFEVTAKYKPPILPIGKGAYGIVCSALNSETIENVAIKKIANAFDNKIDAKRTLREIKLLRHMDHENIVAIRDIIPPPQREAFNDVYIAYELMDTDLHQIIRSNQGLSEEHCQYFLYQILRGLKYIHSANVLHRDLKPSNLLLNANCDLKICDFGLARVTSETDFMTEYVVTRWYRPPELLLNSSDYTAAIDVWSVGCIFMELMDRKPLFPGRDHVHQLRLIMELIGTPSEAEMEFLNENAKRYIRQLPLYRRQSFTEKFPHVHPTAIDLVEKMLTFDPRRRITVEGALAHPYLNSLHDISDEPICMTPFSFDFEQHALTEEQMKELIYRESLAFNPEYQHM
modifications: phosphorylated on tyrosine residue(s); serine/threonine phosphorylation also required for activity; positions not given
In the case of B1, the “specific activity” value (MBP [1]; Superdex 200 HR 10/30 fraction) is reported as 339600.0 pmol/min/mg, the specific activity (MBP [1]; final purified enzyme) is reported as 340000 pmol/min/mg and the retained kinase activity (p48 SIP kinase) is reported as “more than 50%”. For the same molecule, the “phosphorylation of MBP / basal phosphorylation activity” value (MBP [2]) was “phosphorylates MBP”.
